Experimental data as given in patent publication US20190382504A1 (EUREKA THERAPEUTICS, published 2019).
Changes are numbered by the printed parent chain.

B1: phage clone #52, anti-ESO157/HLA-A*02:01 scFv displayed on phage (scFv, V domains shown)
VH: QVQLVQSGAEVKKPGASVKVSCKASGYTFTSYGISWVRQAPGQGLEWMGWISAYNGNTNYAQKLQGRVTMTTDTSTSTAYMELRSLRSDDTAVYYCARYSGYYAGDSWGQGTLVTVSS
VL: QSVLTQPPSVSGAPGQRVTISCTGSSSNIGAGYDVHWYQQLPGTAPKLLIYGDTNRPSGVPDRISGSKSGTSASLAITGLQAEDEADYYCQSYDSNLYTYVFGTGTKVTVLG
B2: phage clone #146, anti-ESO157/HLA-A*02:01 scFv displayed on phage (scFv, V domains shown)
VH: EVQLVQSGAEVKKPGASVKVSCKVSGYTLTDLPMHWVRQAPGKGLEWMGGFDPEDGEIIYAQKFQGRVTMTEDTFTDTAYVELSSLRSEDTAVYYCARYVPYVSYSDSWGQGTLVTVSS
VL: not shown
B3: phage clone #148, anti-ESO157/HLA-A*02:01 scFv displayed on phage (scFv, V domains shown)
VH: EVQLVQSGAEVKKPGASVKVSCKASGGTFSSYAISWVRQAPGQGLEWMGGIIPIFGTANYAQKFQGRVTITADKSTSTAYMELSSLRSEDTAVYYCARSYWSWTPYDPWGQGTLVTVSS
VL: LPVLTQPPSVSVAPGKTARITCGGNNIGSKSVHWYQQKPGQAPVLVIYYDSDRPSGIPERFSGSNSGNTATLTISRVEAGDEADYYCQVWDSSSDHYVFGTGTKVTVLG
B4: phage clone #66, anti-ESO157/HLA-A*02:01 scFv displayed on phage (scFv, V domains shown)
VH: EVQLVESGAEVKRPGASVKVSCKASGYTFTSYGISWVRQAPGQGLEWMGRFIPNLNKGNSAHKFEGRVSFTADKFTNTAYMELRGLKSDDTAVYYCARGDYGSDQWGQGTLVTVSS
VL: QSVLTQPPSVSGAPGQRVTISCTGSSSNIGAGYDVHWYQQLPGTAPKLLIYGNSNRPSGVPDRFSGSKSGTSASLAITGLQAEDEADYYCQSYDSSLSGSWVFGGGTKLTVLG
B5: phage clone #76, anti-ESO157/HLA-A*02:01 scFv displayed on phage (scFv, V domains shown)
VH: EVQLVQSGAEVKKPGSSVKVSCKASGGTFSSYAISWVRQAPGQGLEWMGGIIPIFGTANYAQKFQGRVTITADESTSTAYMELSSLRSEDTAVYYCARYDSYVYDEWGQGTLVTVSS
VL: B4 VL with L4V, V10L, T23N, S26G, S100W, W101G, V102I
B6: phage clone #35, anti-ESO157/HLA-A*02:01 scFv displayed on phage (scFv, V domains shown)
VH: QVQLVQSGAEVKKPGSSVKVSCKASGDTFSSYSISWVRQAPGQGLEWMGRIIPILGIANYAQKYQGRVTLSADKSTSTSYMELNSLRSEDTAVYYCARDWSYSIDYWGQGTLVTVSS
VL: QSVVTQPPSVSAAPGQKVTISCSGSSSNIGNNYVSWYQQLPGTAPKLLIYDNNKRPSGIPDRFSGSKSGTSATLGITGLQTGDEADYYCGTWDSSLSAWVFGGGTKLTVLG
notes: also called parental phage clone #35
B7: phage clone 35-20, affinity maturation variant of clone #35 (scFv, V domains shown)
VH: B6 VH with Q3H, S33Y
VL: QSVVTQPPSVSAAPGQKVTISCSGSSSNIGNNYVSWYQQLPGTAPKLLIYDNNKRPSGIPDRFSGSKSGTSATLGITGLQTGDEADYYCGTWDSSLSAWVFGGGTKLTVL
B8: phage clone 35-3, affinity maturation variant of clone #35 (scFv, V domains shown)
VH: B6 VH with S33Y, D99E
VL: B6 VL with Q80R
B9: phage clone 35-15, affinity maturation variant of clone #35 (scFv, V domains shown)
VH: B6 VH with S33Y, R87S, R98L
VL: B6 VL with G65A, G82R
B10: phage clone 35-12, affinity maturation variant of clone #35 (scFv, V domains shown)
VH: B6 VH with Q3P, K19R, S31N
VL: B6 VL with A72T
B11: phage clone 35-14, affinity maturation variant of clone #35 (scFv, V domains shown)
VH: B6 VH with S33Y, D99E
VL: B7 VL with K46E
B12: phage clone 35-19, affinity maturation variant of clone #35 (scFv, V domains shown)
VH: B6 VH with V2E, S33Y
VL: B6 VL with S26I, K54M
notes: also called variant 35-19
B13: phage clone 35-2, affinity maturation variant of clone #35 (scFv, V domains shown)
VH: B6 VH with S33Y
VL: B6 VL with K54E
B14: phage clone 35-8, affinity maturation variant of clone #35 (scFv, V domains shown)
VH: B6 VH with Q3P, S33Y, S85N
VL: B7 VL
B15: phage clone 35-16, affinity maturation variant of clone #35 (scFv, V domains shown)
VH: B6 VH with G26E, S33Y, I54T
VL: B6 VL with D61G
B16: ESO157 BsAb #116 (anti-ESO157/HLA-A*02:01 scFv x anti-human CD3epsilon scFv, single chain) (bispecific antibody)
chain: QSVLTQPPSVSAAPGQKVTISCSGSSSNIGNNYVSWYQQLPGTAPKLLIYDNNKRPSGIPDRFSGSKSGTSATLGITGLQTGDEADYYCGTWDSSLSAEVFGTGTKVTVLGSRGGGGSGGGGSGGGGSLEMAQVQLVQSGPEVKKPGASMKVSCKASGYTFTKYGISWVRQAPGQGLEWMGWISADSGKTSYAQNLQGRVSLTIDTSTATAYMELRSLRSDDTAVYYCARDDDSWGQGTLVTVSS

What follows are binders tested against T1, HLA-A*02:01 on T2 cells without peptide loading (human) (assay: FACS, peptide-pulsed T2 cells).
T1 construct: TAP-deficient T2 cells, no peptide added; also called No peptide; T2 cells with no peptide loaded

Row | Binder | MFI
1 | B1 | 113
2 | B2 | 132
3 | B3 | 208
4 | B4 | 157
5 | B5 | 131

What follows are binders tested against T2, ESO157 wild type peptide (…)/HLA-A*02:01 complex on cells (human) (assay: FACS, peptide-pulsed T2 cells).
T2 construct: also called ESO157-loaded T2 cells

Row | Binder | MFI
6 | B1 | 14500
7 | B4 | 67000
8 | B5 | 7460
9 | B6 | 17500

The binders below were run against ESO157 A1 peptide (…)/HLA-A*02:01 complex on T2 cells (human) (assay: FACS, peptide-pulsed T2 cells).

Row | Binder | MFI
10 | B1 | 14900
11 | B2 | 9300
12 | B3 | 27700
13 | B4 | 82400
14 | B5 | 14600
15 | B6 | 42400

What follows are binders tested against ESO157 A3 peptide (…)/HLA-A*02:01 complex on T2 cells (human) (assay: FACS, peptide-pulsed T2 cells).

Row | Binder | MFI
16 | B1 | 17700
17 | B2 | 181
18 | B3 | 52900
19 | B4 | 38400
20 | B5 | 42900
21 | B6 | 10200

What follows are binders tested against ESO157 A4 peptide (…)/HLA-A*02:01 complex on T2 cells (human) (assay: FACS, peptide-pulsed T2 cells).

Row | Binder | MFI
22 | B1 | 4740
23 | B2 | 3200
24 | B3 | 240
25 | B4 | 48100
26 | B5 | 191
27 | B6 | 155

Each binder was assayed against ESO157 A5 peptide (…)/HLA-A*02:01 complex on T2 cells (human) (assay: FACS, peptide-pulsed T2 cells).

Row | Binder | MFI
28 | B1 | 107
29 | B2 | 180
30 | B3 | 14200
31 | B4 | 748
32 | B5 | 160
33 | B6 | 163

The binders below were run against ESO157 A6 peptide (…)/HLA-A*02:01 complex on T2 cells (human) (assay: FACS, peptide-pulsed T2 cells).

Row | Binder | MFI
34 | B1 | 1880
35 | B3 | 17500
36 | B4 | 19800

What follows are binders tested against ESO157 A7 peptide (…)/HLA-A*02:01 complex on T2 cells (human) (assay: FACS, peptide-pulsed T2 cells).

Row | Binder | MFI
37 | B1 | 9890
38 | B2 | 333
39 | B3 | 62400
40 | B4 | 64400
41 | B5 | 6200
42 | B6 | 419

The binders below were run against ESO157 A8 peptide (…)/HLA-A*02:01 complex on T2 cells (human) (assay: FACS, peptide-pulsed T2 cells).

Row | Binder | MFI
43 | B1 | 19200
44 | B2 | 18600
45 | B3 | 58300
46 | B4 | 90500
47 | B5 | 12700

The binders below were run against T3, ESO157 homolog 1 peptide (…)/HLA-A*02:01 on T2 cells (human) (assay: FACS, phage on T2 cells, 50 ug/ml peptide;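 also: binding of phage clones to peptide/MHC complexes detected by flow cytometry after staining with an anti-M13 antibody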).
T3 construct: also called ESO157 H1

Row | Binder | MFI
48 | B7 | 21
49 | B8 | 18.8
50 | B9 | 36.2
51 | B10 | 19.3
52 | B11 | 20.8
53 | B12 | 20.7

What follows are binders tested against T4, ESO157 homolog 2 peptide (…)/HLA-A*02:01 on T2 cells (human) (assay: FACS, phage on T2 cells, 50 ug/ml peptide;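 also: binding of phage clones to peptide/MHC complexes detected by flow cytometry after staining with an anti-M13 antibody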).
T4 construct: also called ESO157 H2

Row | Binder | MFI
54 | B6 | 17.6
55 | B8 | 18.4
56 | B13 | 20.8
57 | B10 | 19.2
58 | B14 | 18.7
59 | B11 | 19.8
60 | B12 | 21.9

These binders were tested against T5, ESO157 homolog 3 peptide (…)/HLA-A*02:01 on T2 cells (human) (assay: FACS, phage on T2 cells, 50 ug/ml peptide;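 also: binding of phage clones to peptide/MHC complexes detected by flow cytometry after staining with an anti-M13 antibody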).
T5 construct: also called ESO157 H3

Row | Binder | MFI
61 | B7 | 20.8
62 | B8 | 18.9
63 | B9 | 35.4
64 | B10 | 18.6
65 | B11 | 20
66 | B12 | 21.7
67 | B15 | 18.7

The binders below were run against T6, ESO157 homolog 4 peptide (…)/HLA-A*02:01 on T2 cells (human) (assay: FACS, phage on T2 cells, 50 ug/ml peptide;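 also: binding of phage clones to peptide/MHC complexes detected by flow cytometry after staining with an anti-M13 antibody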).
T6 construct: also called ESO157 H4

Row | Binder | MFI
68 | B7 | 20.6
69 | B8 | 19
70 | B13 | 21
71 | B9 | 33.8
72 | B10 | 18.7
73 | B14 | 19.6
74 | B11 | 19.5
75 | B12 | 21.6
76 | B15 | 19.3

These binders were tested against T7, ESO157 homolog 5 peptide (…)/HLA-A*02:01 on T2 cells (human) (assay: FACS, phage on T2 cells, 50 ug/ml peptide).
T7 construct: also called ESO157 H5

Row | Binder | MFI
77 | B6 | 13.4
78 | B7 | 19
79 | B8 | 18.5
80 | B13 | 18.8
81 | B9 | 31.8
82 | B10 | 17.7
83 | B14 | 17.8
84 | B11 | 18.8
85 | B12 | 60.2
86 | B15 | 18.7

These binders were tested against biotinylated recombinant ESO157/HLA-A*02:02 complex (human) (assay: BLI (Octet QK), biotinylated pMHC on streptavidin sensor, BsAb 10 ug/mL).

Row | Binder | Kd
87 | B16 | 1.8 nM

The binders below were run against biotinylated recombinant ESO157/HLA-A*02:06 complex (human) in the same assay as above.

Row | Binder | Kd
88 | B16 | 0.8 nM

What follows are binders tested against T8, Bio-C9V mutant (assay: phage ELISA: streptavidin plate coated with biotinylated peptide/HLA-A*02:01 monomer, phage detected with HRP-conjugated anti-M13 antibody, absorbance at 450 nm).
T8 construct: also called biotinylated ESO157 C9V/HLA-A*02:01 complex monomer

Row | Binder | binding result
89 | B1 | binds
90 | B2 | binds
91 | B3 | binds
92 | B4 | binds
93 | B5 | binds
